Data from paper PMC2944808 (2010).

Molecular target: T1, Chordin VWC2 (UniProt Q9H2X0)
T1 chain: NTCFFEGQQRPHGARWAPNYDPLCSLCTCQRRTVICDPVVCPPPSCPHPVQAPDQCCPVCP
Test: SPR

B1: Crossveinless-2 (protein)
chain: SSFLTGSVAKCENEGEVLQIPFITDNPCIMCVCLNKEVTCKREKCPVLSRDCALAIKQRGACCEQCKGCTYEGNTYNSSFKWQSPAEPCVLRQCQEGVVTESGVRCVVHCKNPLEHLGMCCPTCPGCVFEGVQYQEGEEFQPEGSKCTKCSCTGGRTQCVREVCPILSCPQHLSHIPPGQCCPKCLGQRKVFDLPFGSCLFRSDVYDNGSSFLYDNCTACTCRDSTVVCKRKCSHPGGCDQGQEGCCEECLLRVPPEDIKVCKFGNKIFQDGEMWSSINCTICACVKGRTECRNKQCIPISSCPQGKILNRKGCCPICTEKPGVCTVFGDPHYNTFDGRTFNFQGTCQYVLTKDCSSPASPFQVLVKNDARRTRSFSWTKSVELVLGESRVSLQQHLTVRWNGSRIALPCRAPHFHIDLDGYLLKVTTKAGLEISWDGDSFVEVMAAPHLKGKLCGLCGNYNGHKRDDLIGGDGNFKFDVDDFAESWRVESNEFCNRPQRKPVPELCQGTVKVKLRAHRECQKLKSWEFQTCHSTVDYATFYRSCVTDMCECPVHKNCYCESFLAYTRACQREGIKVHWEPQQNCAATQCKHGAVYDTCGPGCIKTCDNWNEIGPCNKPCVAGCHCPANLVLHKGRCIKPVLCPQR
Kd: 5 nM
